Source: article PMC10113255, “PHF14 enhances DNA methylation of SMAD7 gene to promote TGF-β-driven lung adenocarcinoma metastasis”

Molecular target: T1, PHF14 ePHD domain WT (Homo sapiens, UniProt O94880 382-499)
T1 sequence: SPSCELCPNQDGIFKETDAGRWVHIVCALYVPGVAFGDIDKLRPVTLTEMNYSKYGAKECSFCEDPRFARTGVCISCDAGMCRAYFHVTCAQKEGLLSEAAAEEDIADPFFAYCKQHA
Assay: SPR; protein immobilized on CM5; SPR: HBS-P (10 mM HEPES pH 7.4, 150 mM NaCl, 0.05% P20), 25 °C, 1:1 Langmuir fit; EMSA: LightShift kit protocol, 0.5x TBE native PAGE, buffer not stated
Details: protein: recombinant; tags: His (EMSA, purification method); FLAG (SPR); label: biotin (EMSA); blunt

| Binder | Kd [nM] |
| --- | --- |
| CG-rich probe, unmethylated (dsDNA) DNA 1: ACGGCTCGTCGCTACGGCTCGTCGCT DNA 2: AGCGACGAGCCGTAGCGACGAGCCGT | 36 |
| AT-rich probe (dsDNA) DNA 1: CATTAGATGATAGCATTAGATGATAG DNA 2: CTATCATCTAATGCTATCATCTAATG | 230 |
